From publication PMC9499646, “Histidine-Rich Glycoprotein Suppresses the S100A8/A9-Mediated Organotropic Metastasis of Melanoma Cells” (International Journal of Molecular Sciences, 2022)

Target: T1, histidine-rich glycoprotein (HRG), human plasma (human, UniProt P04196 19-525, glycosylated (a total of about 20-KDa glycosyl chains))
T1 construct: histidine-rich glycoprotein, human plasma protein; 525 amino acids before processing and secretion; In the pull-down three bands (BP1, BP2, BP3) were all identified as HRG; BP2 and BP3 were estimated to be proteolytic products of BP1; also called plasma HRG; BP1; source: endogenous, healthy human plasma (pull-down)
T1 sequence (looked up): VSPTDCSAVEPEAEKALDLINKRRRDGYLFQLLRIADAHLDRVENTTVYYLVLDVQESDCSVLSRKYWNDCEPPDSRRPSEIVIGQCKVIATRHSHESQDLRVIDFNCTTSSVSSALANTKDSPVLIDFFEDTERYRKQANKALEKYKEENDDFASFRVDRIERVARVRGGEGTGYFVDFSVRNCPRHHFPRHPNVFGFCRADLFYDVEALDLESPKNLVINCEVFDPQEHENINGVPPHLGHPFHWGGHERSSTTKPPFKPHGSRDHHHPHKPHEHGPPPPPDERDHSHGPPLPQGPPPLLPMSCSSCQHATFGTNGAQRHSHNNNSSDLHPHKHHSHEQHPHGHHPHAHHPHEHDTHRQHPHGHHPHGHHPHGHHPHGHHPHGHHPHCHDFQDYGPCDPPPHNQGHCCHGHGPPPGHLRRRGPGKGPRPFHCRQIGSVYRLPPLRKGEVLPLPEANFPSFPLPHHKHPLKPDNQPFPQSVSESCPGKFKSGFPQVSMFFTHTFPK
Assay: ELISA; 96-well plate coated with purified HRG (100 µg/mL); blocked with Blockmaster DB1130; biotinylated S100A8/A9 at different concentrations; HRP-streptavidin, TMB; background of wells without HRG deducted
Conditions: both partners purified

B1: human recombinant S100A8/A9 heterodimer (complex)
chain 1: MLTELEKALNSIIDVYHKYSLIKGNFHAVYRDDLKKLLETECPQYIRKKGADVWFKELDINTDGAVNFQEFLILVIKMGVAAHKKSHEESHKE
chain 2: MTCKMSQLERNIETIINTFHQYSVKLGHPDTLNQGEFKELVRKDLQNFLKKENKNEKVIEHIMEDLDTNADKQLSFEEFIMLMARLTWASHEKMHEGDEGPGHHHKPGLGEGTP
modifications: biotinylated in the ELISA (chain and site not stated) | biotinylated in the ELISA (chain and site not stated)
notes: S100A8 (Calgranulin A), human; S100A9 (Calgranulin B), human; Biotinylated in the ELISA; no biotin is mentioned for the cell assays; also called recombinant human S100A8/A9 heterodimer complex; biotinylated human recombinant S100A8/A9 protein; source: recombinant, highly purified, prepared as described previously [43]
binding result: binds
